Laboratory results: publication PMC8596125, “Self‐Stabilized Supramolecular Assemblies Constructed from PEGylated Dendritic Peptide Conjugate for Augmenting Tumor Retention and Therapy” (Advanced Science, 2021)

Legend:
4T1 cells = test: Cytotoxicity, CCK-8 assay, 4T1; type: cell-based, mouse; details: no light, CCK-8, n = 3
Protocol: The CCK-8 assay was used to examine the photodynamic therapeutic effect of SSAs on cell viability against three cell lines. 4×103 4T1 cells per well were seeded in a 96-well plate, and then incubated overnight. The cells were treated with different concentrations of Ppa and SSAs at an equivalent Ppa dose. After 24 h incubation, the medium was replaced with fresh one, and the wells were irradiated using a 660 nm laser with 1 J cm−2. After 24 h, the spent media was replaced and the cell viability was assessed using the CCK-8 reagent. The absorbance at […] of each well was recorded on a microplate reader. Untreated cells were served as a control. Results were presented as the average cell viability by following the manufacturer’s instruction. IC50 values were calculated by using nonlinear regression in software Graphpad Prism7. The cytotoxicity of SSAs and Ppa with or without laser against A549 cell line was also measured through the same procedure.
(§1) The cytotoxicity of SSAs and PDP without laser irradiation was also measured by […]

L02 cells = test: Cytotoxicity, CCK-8 assay, L02; type: cell-based, human; details: L02 normal cells, 24 h (PDP 24 h and 48 h), CCK-8, n = 3
Protocol: Academy of Science Cell Bank for Type Culture Collection (Shanghai, China) and cultured in RPMI-1640 medium, supplemented with 10% fetal bovine serum (FBS), penicillin G (100 U mL-1) and streptomycin (100 μg mL-1), and incubated in 5% CO2 […]
1.3.7 In vitro ROS generation
The intracellular ROS generation was analyzed by using a peroxide-sensitive fluorescent probe, 2′, 7′- dichlorofluorescin-diacetate (DCFH-DA, Beyotime, Beijing, China). According to the manufacturer’s instruction, cells (1×10^6 cells per well) were treated SSAs and Ppa at the same concentration of 1 μg Ppa mL-1. […] 20,000 events were collected and Flowjo software was used for quantifying the intensity of fluorescence.
The CCK-8 assay was used to examine the photodynamic therapeutic effect of SSAs on cell viability against three cell lines. […] After 24 h, the spent media was replaced and the cell viability was assessed using the CCK-8 reagent. The absorbance at […] of each well was recorded on a microplate reader. […] IC50 values were calculated by using nonlinear regression in software Graphpad Prism7. The cytotoxicity of SSAs and Ppa with or without laser against A549 cell line was also measured through the same procedure.
as §1

[1] = system: mouse red blood cells (RBCs); test: Hemolysis of erythrocytes; type: cell-based; details: up to 10.0 mg mL-1, 37 °C, 12 h, absorbance 540 nm
Protocol: with 6×105 A549 cells subcutaneously on the right flank for the A549 model. About 2 weeks after implantation, mice with a tumor volume size of 100 mm3 were used for biodistribution and imaging, and mice with a tumor volume size of 50 mm3 for […]
1.3.11 Blood compatibility
Erythrocytes morphologies and aggregation
Erythrocytes were collected from female BALB/c mice, and erythrocytes suspension was prepared by centrifuging the citrated whole blood at 1000 g for 5 min at room temperature. After the plasma and buffy coat layers were removed, the erythrocytes were washed with PBS 3 times. […]
The dried erythrocytes samples were coated with gold and analyzed under a SEM. […]
Erythrocytes were diluted with PBS to prepare the erythrocyte suspension. […] The absorbance of the supernatant was measured with a Microplate Reader at 540 nm, and hemolysis rate was determined using the following […]
Where AS is the absorbance of the sample, A100 is the absorbance of lysed erythrocytes in H2O (a positive control), and A0 is the absorbance of 0% hemolysis in PBS (a negative control). […]
The backs of healthy BALB/c mice were depilated 3 days before treatment to ensure that all injures had recovered. […] The degree of skin response was examined and scored according to Table S5, and Paraffin sections of the skin were stained with hematoxylin and eosin (H&E) according to the manufacturer's instructions.[3] […]

[2] = Critical assembly concentration (pyrene fluorescence probe); type: physicochemical; details: in H2O, pyrene as fluorescence probe
Protocol: Ppa was dissolved in anhydrous DMSO and then diluted in different concentrations.
The absorbance values of PDPP at 667 nm were obtained and the drug loading was calculated according to the standard absorption curve. Drug loading content (DLC) = (weight of Ppa in PDPP / weight of PDPP) × 100%.
(§2) 1.3.2 Size, zeta potential and morphology
The size, polydispersity index (PDI), correlation coefficient and zeta potential of self-stabilized supramolecular assemblies (PDPP) were measured by DLS, and the morphology and particle size of PDPP were observed under a TEM. […] Furthermore, the effects of hydrophobic force, ionic interaction, and hydrogen bonding on the supramolecular self-assembly of PDPP were assessed by adding Triton X-100, NaCl, and urea to the PDPP solution with the final concentrations of 1, 5, 10, 20, 50 and 100 mM for Triton X-100, NaCl, and urea. After incubation for 1 h, the size changes of PDPP were recorded by DLS. […]
(§3) The colloidal stability of PDPP was assessed by monitoring the change in the size and PDI as a function of time. PDPP were added in H2O, PBS, H2O containing 10% of fetal bovine serum (FBS), and PBS containing 10% of FBS respectively, and these mixtures were incubated at 37℃ in a humidified chamber, and their sizes and PDI were monitored by DLS at a pre-determined time. […]
The CAC of PDPP was determined by using pyrene as a fluorescence probe. […]
Fluorescence emission spectrum […]

[3] = Disassembly behavior in Triton X-100, NaCl or urea (DLS); type: physicochemical; details: 1 h incubation, n = 6
Protocol: as §2
The size, polydispersity index (PDI), correlation coefficient and zeta potential of self-stabilized supramolecular assemblies (PDPP) were measured by DLS, and the morphology and particle size of PDPP were observed under a TEM. Briefly, PDPP was dissolved in Milli-Q water and ultrasonically dispersed to prepare PDPP solutions at different concentrations (0.1, 0.5, 1.0, 5.0, and 10.0 mg mL-1) for DLS, TEM measurements. Furthermore, the effects of hydrophobic force, ionic interaction, and hydrogen bonding on the supramolecular self-assembly of PDPP were assessed by adding Triton X-100, NaCl, and urea to the PDPP solution with the final concentrations of 1, 5, 10, 20, 50 and 100 mM for Triton X-100, NaCl, and urea. After incubation for 1 h, the size changes of PDPP were recorded by DLS. […]

[4] = Colloidal stability (size and PDI over time by DLS); type: physicochemical; details: H2O, PBS, H2O or PBS with 10% FBS, 37 °C, 7 d, n = 3
Protocol: as §2
(§4) The size, polydispersity index (PDI), correlation coefficient and zeta potential of self-stabilized supramolecular assemblies (PDPP) were measured by DLS, and the morphology and particle size of PDPP were observed under a TEM. […]
(§5) 1.3.3 Colloidal stability
as §3

[5] = Size, PDI and zeta potential by DLS; type: physicochemical
Protocol: as §2, §4, §5, §3

Substance: PEG‐dendritic peptide [PDP]
- Cytotoxicity without laser irradiation (4T1 cells): no significant cytotoxicity
- Cytotoxicity without laser irradiation (L02 cells): no significant cytotoxicity
- Hemolysis [1]: no hemolysis is observed and detected

Substance: PEG‐dendritic peptide‐pyropheophorbide a [PDPP]
- Critical assembly concentration (CAC) [2]: 4.85 µg/mL
- Change in size and PDI after dispersion in NaCl or urea solution ([3]; 1-100 mM NaCl or urea): no significant change
- Disassembly behavior in Triton solution ([3]; Triton X-100 at a high concentration (1-100 mM tested)): disassembly behaviors of PDPP would have occurred
- Colloidal stability: size and PDI over time [4]: remain unchanged for 7 d
- PDI ([5]; in H2O): 0.152±0.036
- Size ([5]; in H2O): 104.68 ± 15.10 nm·days
- Zeta Potential ([5]; in H2O): -25.49±0.58 mV
- PDI ([5]; in H2O+10%FBS): 0.167±0.012
- Size ([5]; in H2O+10%FBS): 96.13 ± 9.72 nm·days
- Zeta Potential ([5]; in H2O+10%FBS): -13.57±0.85 mV
- PDI ([5]; in PBS): 0.137±0.036
- Size ([5]; in PBS): 100.38 ± 19.12 nm·days
- Zeta Potential ([5]; in PBS): -5.28±7.86 mV
- PDI ([5]; in PBS+10%FBS): 0.154±0.013
- Size ([5]; in PBS+10%FBS): 102.58 ± 8.94 nm·days
- Zeta Potential ([5]; in PBS+10%FBS): -7.34±0.94 mV
